Assay results published in the nanobody polyreactivity screen of Harvey et al. (2022).

test: yeast display, Sf9 membrane polyspecificity reagent, FACS + sequencing; frameworks hold sequencing errors
Method in brief: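 Nanobodies from a synthetic yeast display library (Saccharomyces cerevisiae BJ5465), induced 36–48 hours with galactose, were stained 1 hour at 4 °C with 10% biotinylated, detergent-solubilized Sf9 membrane reagent, enriched on streptavidin microbeads, then FACS-sorted. Anti-HA (expression) and streptavidin (reagent binding) fluorescence set low and high (top ~1%) gates. Polyreactivity labels come from the gate of origin. Genes were colony-PCR amplified, MiSeq 2 × 250 sequenced and filtered by CDR length.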

Sequence	polyreactivity (PSR sort gate)
QDQLVESGGGLVQAGGSLRLSCAASGSTFTSNAMGWYRQAPGKERELVAAISFSDASTYYADSVKGRFTISRDNAKKTVYLQMNSLKPEDTAVYYCNADYPTTAYDYCGQGTQVTVSS	low polyreactivity
QVQLVESGGGLVQAGGSLRLSCAASGSTFGANAMGWYRQAPGKERELVATISSGGRTYYADSVKGRFTISRDNAKNTVYLQMNSLKPEDTAVYYCNAGADYTYVYISVYVLYDYWGQGTQVTVSS	low polyreactivity
HVQLVESGGGLVQAGGSLRLSCAASGRTFLVYAMGWDRQAPGKERELVADITRSGGRTYYADSVKGRITISRDNAKNTVYLQINSLKPEDTAVYYCAARPYFVGPIEYDYWGQGTQVTVSS	high polyreactivity
QVQLVESVGGLVQAGGSLRLSSAASGLIFDVYPMGWYSQGPGKERELVAAISTSGGRTYYADSVKGRFTISRDNAKNTVYLQMTSLKPEDTAVYYCAAVSPHNRYGYKYDYWGQGTQVTVSS	high polyreactivity
QVQLVESGGGLVQAGGSLRLSCAATGSTFAVYSMGWYRQAPGKELELVATIRRNGGSTYYADSVKGRFTISRDNAKNTVYLQMNSLQPEDTAVYYCAARSRKRWGYNYWGQGTQVTVSA	high polyreactivity
QVQRVESGGGLVQEGGSLRLSCAASGRIFGYYAMGWYRQAPGKERELVAVITGNGSTYYADSVKGRFTISRDNAKNTVYLQRNSLNPEETAVYYCAARYVFVVRGRTVPRYYYWGQGTQVTVSS	high polyreactivity
QVQLVESGGGLVQAGGSLRLSCAASGSIFAVNAMGWYRQAPGKERELVAAISFGGGDTYYADSVKGRFTISRDNAKNTVYLQMNSLKPEDTAVYYCAADVITRGVKYLGQVAYEYWGQGTQVTVSS	low polyreactivity
QVQLVESVGGLVQAGGSLRLSCAASGLIFATYAMGWYRQAPGKESELVADITTTGSTYYADSVKGRFTISRDNAKNTDYLQMNSLKPEATAVYYCAAYCRLLSGYDFDYWGKGTQVTVSS	high polyreactivity
QVQHVESGGGLVQAGGSLRLSCAASGFIFVRNTMGWYRQAPGKERELVATITRRGGSTSYADSVKGRFTISRDNAKNTVYLQMNSLKPEDTAVYFCNARSVYGSKQEEYWGQGTQVTVSS	high polyreactivity
QVQLVESGGGLVQAGGSLRLSCAASGIIFRYYVMGWYRQAPGKERELVADITSGGSTYYADSVKGRFTISRDNEKNTVYLQMNSLKPEDTAVYYCAADYQYDWFYYWGQGTQVTVSS	high polyreactivity
QVQLVESGGGLVQAGGSLRLSCAASGLTFRTYTMGWYRQAPGKERELVAAISSSGSTKYADSVKGRFTISRDNAKNTVYLQMICLKPEDTAVYYCAARGRIYFTQYGYWGQVTQVTVSS	high polyreactivity
QVQLVESGGGLVQAGGSLRLSCAASGSTFGGYVMGWYRQAPGKERELVATITQGDGSTYYADSVKGRFTISRDNAKNTVYLQMNSLKPEDTAVYYCAAYGWYDLYYWEYDYWGQGTQVTVSS	high polyreactivity
QVHLVESGGGLVQAGGSLRVSCAASGSIFPYAMGCYRQAPGKEREFVAAITSGVRTNYADSVKGRFTISRDNAKNNVYLQINSLKPEDTAVYYCAARYFPHYYSKYDYWGPGTQVTVSS	low polyreactivity
QVQLVESGGGLVQAGGSLRLSCAASGRIFTYYGMGWSRQAPGKEMELVAAISSSGDSTFYADSVKGRFTISRDNAKNTVYLQMNSLKPEDTAVYYCAADYYYVWYDYWGQGTQVTVSS	low polyreactivity
QVQLVESGGGVVQAGGSLRLSCAASGIIFYRYAMGWYRQAPGKERELVARITNGGNTYYADSVKGRFTISRDNAKNTVYLQMNSLKPEDTAVYYCAVRVFGYSPYSNWMYYWGQGTQVTVSS	high polyreactivity
QVQLVESGGGLVQAGGSLRLSCAASGSTFGPNTMGWYRQAPGKERELVAAITTRGGRTYYADSVKGRFTISRDNAKNTVYLQMNSLKPEDTAVYYCAASAPYYGRGGLVGYWGQGTQVTVSS	high polyreactivity
QVQLVESGGGLVQAGGSLRLSCAASGFTFFRYAMGWYRQAPGKERELVAAISYSGGNTYYADSVKGRFTISRDNAKNTVYLQMNSLKPEDTAVYYCNAVHFWKYDYWGQGTQVTVSS	high polyreactivity
QVQLVESGGGLVQAGGSLRLSCAASGSTFRYYAMGWYRQAPGKERELVAAISSSGGRTYYADSVKGRFTISRDNAKNTVYLQMNSLKPEDTAVYYCAALYLRYHYGTDFDYWGQGTKVTVSS	high polyreactivity
QVQLVESGGGLVQAGGSLRLSCASSGSTSYRYAMGWYRQAPGKERELVAAISSSGGSTYYADSVKGRFTISRDNAKNTVYLQMNSLKPEDTAVYYCAARFYSGPGGYTMYYWGQGTQVTVSS	high polyreactivity
QVQLVESGGGLVQAGGSLRLSCAASGGTFPYNAMGWYRQAAGKERELVAAISSSGTSTYYADSVKRRFTISRDNAKNTVYLQMNSLKPEDTAVYYCNDYFKRYDYWGQGTQVTVSS	high polyreactivity
QVQLVESGGGLVQAGGSLRLSCAASGFIFRTYAMAWYRQAPGKERELVAAIRQSAGRTYYADSVKGRFTISRDNAKNTVYLQMISLKPEDTAVYYCAADRSPYRRQYDYWGQGTQVTVSS	high polyreactivity
QVQLVESGGGLVQAAGSLRLICAASGRTFDSYAMGRYRQAPGKEREFVAAISYSGTSTYYADSVKGRFTISRDDAKNTVYLQMNSLKPEDTAVYYCAKEYIFRLWGQGTQVTVSS	low polyreactivity

Sequence	polyreactivity (PSR sort gate)
QVQLVESGGGLVQAGGSLRLSCAASGSIFLYNAMGWYRQAPGKERELVAAISASGGSTYYADSVKGRFTISRDNAKNTVYLQMNSLKPEDTEVYFCAAQYSDYDGFTWPLPPRYDYWGQGTQVTVSS	high polyreactivity
QVQLVESGGGLVQAGGSLRLSCAATGIIFGHYAMGWYRQAPGKERELVAAITSGGRTYYADSVKGRFTISRDNAKNTVYLQMNSLKPEDTAVYYCNVDQGYQGYLRIFDYWGQGTQVTVSS	low polyreactivity
QVQLVESGGGLVQAGGSLRLSCAASGSISVYNAMGWYRQAPGKVRELVAAISWSGGRTSYADSVKGRFTISRDHAKNTVYLQMNSLKPEDTAVYYCAADELTGLWDEDYWGPGTQVTVSS	low polyreactivity
QVQLVESGGGLVQAGGSLRLSCAASGFIFGYYAMGWDRQAPGKERELVAAITSDGNTDYSDSVKGRFTISRDNAKNTVYLQMNSLKPEDTAVYYCATDWVDHYDYWGQGTQVTVSS	low polyreactivity
QVQLVESGGGLVQAGGSLRLSCAASGSIFRRNAMGWYRQAPGKERELVAAISIRGGSTYYADSVKGRFTISRDNAKNTVYLQMNSLKPEDTAVYYCNAKFRKADYDYWGQGTQVTVSS	high polyreactivity
QVQLVESGGGLVQAGGSLRLSCAASGSTFYRNAMGWYRQAPGKERELVAAITSRGTRTFYADSVKGRFTISRDNAKNTVYLQMNSLKPEDTAVYYCAVTYQAEYEYDYWGQGTQVTVSS	low polyreactivity
QVQLVESGGGLVQAGGSLRLSCATSGRTFRFNAMGWYRQAPGKEREFVAAITSGGGTYYADSVKGRFTISRDNAKNTLDLQMNSLKPEDTAVYYCAAPRQYYLMDYWGQGTQVTVSS	low polyreactivity
QVQLVESGGGLVQAGGSLRLICAASGSTFHAYAMGWYRQAPGKEREMVAAISWRGGSTYYADSVKGRFTISRDNAKNTVYLQMNSLKPEDTAVYYCAASVQGLFGTSGMEGVDYWGQGTQVTVSS	high polyreactivity
QVQLVESGGGLVQAGGSLRLSCAASGRIFWHNAMGWYRQAPGKERELVAAITGGGSTYYADSVKGRFTISRDNAKNTVYLQMNSLKPEDTAVYYCATLGSLRYYWPGYDYWGQGTQGTVSS	high polyreactivity
QVQLVESGGGLVQAGGSLRLSCAASGFIFGYYAMGWYRQAPGKERELVAAITTSAASTYYADSVKGRFTISRDNAKNTVYLQMNSLKPEDTAVYYCNAVLYKVSISEYDYWGQGTQVTVSS	high polyreactivity
QVQLVESGGGLVQAGGSLRLSCAASGSTFYANAMGWYRQAPGKDRELVAAITRSGAGTYYADSVKGRFTISRDNAKNTGYLQMNSLKPEDTAVYYCAKRTKTPTGYVWGGYDYWGQGTQVTGSS	high polyreactivity
QVQLVESGGGLVQAGGSLRLSCAASGFIFGEYTMGWYRQAPGKEREFVAAISWSGGSTSYADSVKGRFTISRDNAKNTVYLQMNSLKPEDTAVYYCAARYGSDYDYWGQGTQVTVSS	low polyreactivity
QVQLVESGGGLVQAGGSLRLSCAASGRIFRQYTMGWNRQAPGKERELVAAITGTRGSTYYADSVKGRFTISRDNAKNTVYLQMNSLKPVDTAVYSCDADYSARYGYWGQGTQVTVSS	high polyreactivity
QDQHVESGGGLVQAGGSLRLSCAASGRTFVPYAMGWYRQAPGKERELVATISRSGGRTNYADSVKGRFTISRDNAKNTVYIQMNSLKPEDTAVYYCAATGFLTWRHMYYWGQGTQVTVSS	high polyreactivity
QVQLVESGGGLVQAGGSLRLSCAASGRIFVKYAMGLYRQAPGKERELVAAIRSGGSTYYADSVKRRFTISRDNAKYTVYLQMNSLKPEDTAVYYCAADRNKHHYYNEPYDYWGQGTQVTVSS	low polyreactivity
QVQLVESGGGLVQAGGSLRLSCAASRIIFSYNPMGWYRQAPGKERELVAASSYGGRTYYAVSVKGRFTISRDNAKNTVDLQMKSLKPEDTAVYYCATRSPHRLYGDYYDYWGLGTQVTVSS	high polyreactivity
QVQLVESGGGLVQAGGRLRLSCTASGIIFGTYAMGWYRQAPGKERELVAAISSSGVSTYYADSVKGRFTISRDNAKNTVYLQMNSLKPEDTAVYYCAAPLHYGYYYWGQGTQVTVSS	high polyreactivity
QVQLVESGGGLVQAGGSLRLSCAASGIIFRNYAMGWYRQAPGEERELVATIRYRGGRTYADSVKGRFTISRDNAKNTVYLQMNSLKPEDTAVYYCNTYARYAYLTGRMDYWGQGTQVTVSS	high polyreactivity
QVQLVESGGGLVQAGGSLRLSCAASGIIFGRNARGWYRQAPGKEREMVAGITRRGARTYYADSVKGRFTISRDNAKNTVDLQMKSLKPEDTSVYYCATYSVQTDYGRGDYWGQGTKVTVSS	high polyreactivity
QVQLVESGGCLVQAGGRLRLSFAASGLTFEQYAMGWYRQAPGKERELVPAISRRGTSTYYADSVKGRFTISRDNAKNTVFLQMNSLKPEDTAVYYCNAGWWYLGSPFDRDYWGQGTQVTVSS	high polyreactivity
QVQLVESGGGLVQAGGSLRLSCAASGSISTNYAMGWYRQAPGKERELVAAISSSGGSTYYADSVKGRFTISRDNAKNTVYLQMNSLKPEDTAVYYCRYKFGYWGQGTQVTVSS	high polyreactivity
